Measurements as given in US20230087785A1, “Leucine-Rich Repeat Kinase 2 Allosteric Modulators” (VIB VZW, priority 2020, published 2023).

B1: Nb22: LRRK2-specific Nanobody, SEQ ID NO: 9 (protein)
VHH: MAQVQLVESGGGLVQAGGSLRLSCAASGRTFSSYTMGWFRQAPGKEREFVAAIRWSGGSTYYADSVKGRFTISRDNAKNTVYLQMNSLKPEDTAVYYCAASDRGGFIATSGGWMDYWGKGTQVTVSS
modifications: Nanobody CA13611
B2: Nb23: LRRK2-specific Nanobody, SEQ ID NO: 3 (protein)
VHH: MAQVQLVESGGGLVQAGGSLRLSCAASGRTFSRYTMGWFRQAPGKDREFVARITTSGAVTTYADSAKGRFTISRDNAKNTVYLQMNTLKPEDTAVYYCAAGQGQLSSQSRFVDYWGQGTQVTVSS
modifications: Nanobody CA13612
B3: Nb6: LRRK2-specific Nanobody, SEQ ID NO: 2 (protein)
VHH: MAQVQLVESGGGLVQAGGSLRLSCAASGSIFSPTAMGWYRQAPGKERELVAGITSGGYTNYRNFARGRFTISRDNAKKTVYLQMNSLNPEDTAVYYCNTLTISWSWGQGTQVTVSS
modifications: Nanobody CA12618
B4: Nb42: LRRK2-specific Nanobody, SEQ ID NO: 6 (protein)
VHH: MAQVQLVESGGGLVQAGGSLRLSCAASGDVNYAVGWFRQAPRKEREFVAAINWRGDNTDYTDSVKGRFTISRDNAKNTVYLQMNSLKPEDTAVYYCAAKSAPYWYSDIAPDYWGQGTQVTVSS
modifications: Nanobody CA14259
B5: Nb1: LRRK2-specific Nanobody, SEQ ID NO: 1 (protein)
VHH: MAQVQLVESGGGLVQAGGSLRLSCVASGRIFSGNAMGWYRQAPGRQRELVAGITNGGYTNYRQFVKGRFTISRDNAKRTVYLQMNSLKPEDTAVYYCNALDREARQVDYWGQGTQVTVSS
modifications: Nanobody CA12610

target: T1, mScarlet-LRRK2 (Homo sapiens, UniProt Q5S007, M2397T/R50H); experiment: Confocal microscopy of LRRK2 microtubule localization in HEK293 cells; format: cell-based; conditions: HEK293 cells co-transfected with mScarlet-LRRK2 and GFP-Nb, treated with 1 μM MLi-2
T1 construct: expressed in transfected cells; host or cells: HEK293
T1 sequence (Q5S007 whole entry R50H/M2397T): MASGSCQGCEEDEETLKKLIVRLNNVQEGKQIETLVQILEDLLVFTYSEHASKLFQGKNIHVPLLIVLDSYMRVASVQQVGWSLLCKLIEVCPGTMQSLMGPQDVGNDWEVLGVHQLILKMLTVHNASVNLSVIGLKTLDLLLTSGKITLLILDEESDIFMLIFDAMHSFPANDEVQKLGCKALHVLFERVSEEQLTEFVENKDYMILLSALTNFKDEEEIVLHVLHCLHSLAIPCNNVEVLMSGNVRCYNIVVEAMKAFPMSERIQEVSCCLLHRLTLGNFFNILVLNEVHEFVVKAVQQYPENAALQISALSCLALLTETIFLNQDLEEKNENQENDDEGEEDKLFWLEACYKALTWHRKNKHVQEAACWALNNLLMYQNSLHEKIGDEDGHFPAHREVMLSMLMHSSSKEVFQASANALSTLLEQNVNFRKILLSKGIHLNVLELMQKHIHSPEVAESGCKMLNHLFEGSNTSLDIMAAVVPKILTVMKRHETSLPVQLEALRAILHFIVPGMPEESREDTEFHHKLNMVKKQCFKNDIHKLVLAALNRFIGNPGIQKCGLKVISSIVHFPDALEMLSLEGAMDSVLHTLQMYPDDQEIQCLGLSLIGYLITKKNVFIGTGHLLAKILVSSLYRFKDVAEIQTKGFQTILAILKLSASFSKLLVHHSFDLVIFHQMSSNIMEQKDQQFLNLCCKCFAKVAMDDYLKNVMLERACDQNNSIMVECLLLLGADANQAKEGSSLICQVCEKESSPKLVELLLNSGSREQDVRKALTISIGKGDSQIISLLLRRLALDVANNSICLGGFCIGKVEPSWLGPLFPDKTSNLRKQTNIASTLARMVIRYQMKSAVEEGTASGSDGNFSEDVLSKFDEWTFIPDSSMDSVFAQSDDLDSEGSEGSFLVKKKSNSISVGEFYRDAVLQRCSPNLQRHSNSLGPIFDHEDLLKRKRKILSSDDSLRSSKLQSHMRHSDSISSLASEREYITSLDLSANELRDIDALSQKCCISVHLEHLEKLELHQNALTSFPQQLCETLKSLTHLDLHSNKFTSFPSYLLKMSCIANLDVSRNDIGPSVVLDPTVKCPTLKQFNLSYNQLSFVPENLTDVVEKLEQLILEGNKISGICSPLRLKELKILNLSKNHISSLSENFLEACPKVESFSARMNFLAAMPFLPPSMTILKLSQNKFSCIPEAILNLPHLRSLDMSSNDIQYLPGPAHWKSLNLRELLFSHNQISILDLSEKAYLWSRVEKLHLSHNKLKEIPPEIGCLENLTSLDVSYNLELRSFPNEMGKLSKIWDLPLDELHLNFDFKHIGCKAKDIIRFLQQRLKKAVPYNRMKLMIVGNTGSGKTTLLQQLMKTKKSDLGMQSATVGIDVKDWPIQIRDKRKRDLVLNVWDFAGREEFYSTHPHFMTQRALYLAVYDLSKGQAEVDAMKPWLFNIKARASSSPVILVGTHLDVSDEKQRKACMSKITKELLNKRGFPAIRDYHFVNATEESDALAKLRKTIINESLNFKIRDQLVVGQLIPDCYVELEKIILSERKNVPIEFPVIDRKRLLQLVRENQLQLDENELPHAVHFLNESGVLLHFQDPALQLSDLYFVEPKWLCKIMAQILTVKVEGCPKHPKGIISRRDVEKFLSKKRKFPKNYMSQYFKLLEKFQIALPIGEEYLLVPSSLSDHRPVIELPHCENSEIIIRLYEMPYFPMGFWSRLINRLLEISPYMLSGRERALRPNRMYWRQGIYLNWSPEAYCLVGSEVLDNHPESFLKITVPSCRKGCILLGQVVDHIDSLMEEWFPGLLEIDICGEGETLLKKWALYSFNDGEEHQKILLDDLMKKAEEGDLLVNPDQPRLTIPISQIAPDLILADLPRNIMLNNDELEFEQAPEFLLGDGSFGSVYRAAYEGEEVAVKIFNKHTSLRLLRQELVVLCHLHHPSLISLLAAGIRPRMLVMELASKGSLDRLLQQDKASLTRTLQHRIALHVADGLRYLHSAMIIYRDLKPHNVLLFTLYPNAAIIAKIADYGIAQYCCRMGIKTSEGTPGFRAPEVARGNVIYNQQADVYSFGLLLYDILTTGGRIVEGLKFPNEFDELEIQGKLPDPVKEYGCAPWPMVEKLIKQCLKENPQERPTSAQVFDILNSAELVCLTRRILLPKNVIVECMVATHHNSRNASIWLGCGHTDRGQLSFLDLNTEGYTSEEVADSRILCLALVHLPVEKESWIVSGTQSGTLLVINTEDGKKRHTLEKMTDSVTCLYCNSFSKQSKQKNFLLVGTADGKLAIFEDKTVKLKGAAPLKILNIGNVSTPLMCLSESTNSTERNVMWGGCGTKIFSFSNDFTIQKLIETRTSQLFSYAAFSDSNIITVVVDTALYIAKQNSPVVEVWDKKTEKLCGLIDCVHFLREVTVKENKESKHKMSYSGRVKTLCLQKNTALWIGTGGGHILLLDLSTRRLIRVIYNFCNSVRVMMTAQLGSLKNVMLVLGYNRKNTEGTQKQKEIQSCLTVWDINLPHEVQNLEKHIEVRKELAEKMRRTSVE
Excerpt: HEK 293 cells were co-transfected with the indicated GFP-Nbs and mScarlet-LRRK2. […] Scale bar 5 μm.
FIG. 6. […] Scale bar 5 μm.
The binding of LRRK2 to microtubules subsequently reduces the kinesin—and dynein-mediated transport along microtubules.
Recent structural information has linked LRRK2 microtubule relocalization to the conformation of the kinase domain, with a closed conformation favoring LRRK2 binding to microtubules. As a consequence, the commonly used ATP-competitive type I LRRK2 inhibitors trigger this effect. In addition, it was shown before that the WD40 domain is indispensable for LRRK2-microtubule association.
A HEK293 cell line was cultured in complete media (high-glucose Dulbecco's modified Eagle's medium, 10% fetal bovine serum and Penicillin-Streptomycin-Glutamine (Gibco)). Cells were seeded on 8-well p-Slide(Ibidi) and transfected at a confluency of 50-70% with GFP-Nb and mScarlet-LRRK2 constructs, using JetPEI reagent (Polyplus transfection). […] Data acquisition was done with a ×100 oil-immersion objective with a Zeiss LSM800 confocal laser scanning microscope. Image analysis of z-scan was done using the Zeiss microscope software ZEN.

Row | effect on MLi-2-induced recruitment of LRRK2 to microtubules | Molecule
1 | rescuing effect is most prominent | B1
2 | rescuing effect is most prominent | B2

target: T2, LRRK2(G2019S) (Homo sapiens, UniProt Q5S007, G2019S/M2397T/R50H); experiment: In cellulo phospho-Rab / LRRK2 autophosphorylation assay in HEK293T cells; format: cell-based; parameters: key to Functional Group (see FIG. 2d): Group 1: group 1: Nbs that inhibit both LRRK2 autophosphorylation and Rab10 phosphorylation in cells; Group 2: group 2: Nbs that inhibit only Rab10 phosphorylation; Group 3: group 3: Nbs that activate LRRK2 kinase activity; Group 4: group 4: Nbs that have no consistent/clear effect on LRRK2 kinase activity; conditions: HEK 293T cells co-expressing LRRK2(G2019S), Rab29 and Nb-GFP
T2 construct: SF tag (FLAG + Twin-Strep); expressed in transfected cells; host or cells: HEK 293T
T2 sequence (Q5S007 whole entry R50H/G2019S/M2397T): as the sequence (Q5S007 whole entry R50H/M2397T) above, with G2019S counted along it
How it was run: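 Cells co-transfected (PEI) with SF-tagged LRRK2(G2019S), FLAG-HA Rab29 and Nb-GFP fusions, lysed after 48 hrs. Western blot read LRRK2 pS1292 and endogenous Rab10 pT72 with site-specific antibodies, referenced to total LRRK2 and Rab10; ECL chemiluminescence on film.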

Row | Molecule | LRRK2 autophosphorylation at position S1292
3 | B2 | inhibit both Rab10 phosphorylation and LRRK2 autophosphorylation at S1292
4 | B3 | inhibit both Rab10 phosphorylation and LRRK2 autophosphorylation at S1292
5 | B4 | inhibit both Rab10 phosphorylation and LRRK2 autophosphorylation at S1292
6 | B5 | inhibit both Rab10 phosphorylation and LRRK2 autophosphorylation at S1292

same assay, conditions: HEK 293T cells co-expressing LRRK2(G2019S), Rab29 and Nb-GFP; Western blot

Row | Molecule | influence on LRRK2 kinase activity compared to the controls
7 | B1 | significant increase of LRRK2 kinase activity
8 | B2 | strongly decreased LRRK2 autophosphorylation and/or Rab10 phosphorylation
9 | B3 | strongly decreased LRRK2 autophosphorylation and/or Rab10 phosphorylation
10 | B4 | strongly decreased LRRK2 autophosphorylation and/or Rab10 phosphorylation
11 | B5 | strongly decreased LRRK2 autophosphorylation and/or Rab10 phosphorylation

same assay, conditions: classification by effect on in cellulo LRRK2(G2019S) kinase activity

Row | Functional Group (see FIG. 2d) | Molecule
12 | Group 3 | B1
13 | Group 1 | B2
14 | Group 1 | B3
15 | Group 1 | B4
16 | Group 1 | B5

same assay, conditions: endogenous Rab10; HEK 293T cells co-expressing LRRK2(G2019S), Rab29 and Nb-GFP

Row | Molecule | Rab10 phosphorylation at position T72
17 | B1 | activating Rab10 phosphorylation in cells
18 | B2 | inhibit both Rab10 phosphorylation and LRRK2 autophosphorylation at S1292
19 | B3 | inhibit both Rab10 phosphorylation and LRRK2 autophosphorylation at S1292
20 | B4 | inhibit both Rab10 phosphorylation and LRRK2 autophosphorylation at S1292
21 | B5 | inhibit both Rab10 phosphorylation and LRRK2 autophosphorylation at S1292
